From paper PMC4992421 (Nature immunology, 2016) come the findings set out here.

Targets include KIR3DL1-Fc (human, UniProt P43629); KIR3DS1-Fc (human, UniProt Q14943); KIR3DL2-Fc (human, UniProt P43630).
Holding throughout (assay): SPR
A general note: In SPR one partner is held on a chip, and binding of the other changes the refractive index at the surface.

Chain of KIR3DS1-Fc (Q14943 22-340): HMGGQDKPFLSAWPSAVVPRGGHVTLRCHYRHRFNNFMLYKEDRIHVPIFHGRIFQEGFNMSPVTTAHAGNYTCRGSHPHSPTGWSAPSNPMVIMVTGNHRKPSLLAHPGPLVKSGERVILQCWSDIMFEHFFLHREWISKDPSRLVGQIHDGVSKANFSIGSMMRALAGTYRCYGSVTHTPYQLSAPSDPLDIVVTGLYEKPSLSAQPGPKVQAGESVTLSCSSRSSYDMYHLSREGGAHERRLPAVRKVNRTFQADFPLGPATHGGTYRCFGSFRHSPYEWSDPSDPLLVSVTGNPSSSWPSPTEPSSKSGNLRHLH
Chain of KIR3DL1-Fc (P43629 22-340): as the sequence (Q14943 22-340) above, with V47I, G58S, M92V, R136K, W138G, S163P, R166L, L199P, L315P counted along it
Chain of KIR3DL2-Fc (P43630 22-340): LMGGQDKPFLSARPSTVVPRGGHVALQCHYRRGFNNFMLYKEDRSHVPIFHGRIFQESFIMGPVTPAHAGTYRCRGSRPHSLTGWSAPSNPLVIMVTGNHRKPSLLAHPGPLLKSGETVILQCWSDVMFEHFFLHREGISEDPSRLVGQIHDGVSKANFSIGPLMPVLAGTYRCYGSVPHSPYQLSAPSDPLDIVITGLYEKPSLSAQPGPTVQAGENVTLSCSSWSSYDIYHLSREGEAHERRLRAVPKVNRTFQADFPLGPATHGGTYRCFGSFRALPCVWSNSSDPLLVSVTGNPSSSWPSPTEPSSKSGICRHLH

B1: HLA-F open conformer (natural protein)
MHC heavy: GSHSLRYFSTAVSRPGRGEPRYIAVEYVDDTQFLRFDSDAAIPRMEPREPWVEQEGPQYWEWTTGYAKANAQTDRVALRNLLRRYNQSEAGSHTLQGMNGCDMGPDGRLLRGYHQHAYDGKDYISLNEDLRSWTAADTVAQITQRFYEAEEYAEEFRTYLEGECLELLRRYLENGKETLQRADPPKAHVAHHPISDHEATLRCWALGFYPAEITLTWQRDGEEQTQDTELVETRPAGDGTFQKWAAVVVPPGEEQRYTCHVQHEGLPQPLILRWEQSPQPTIPI
modifications: biotin (biotinylated monomer, site not stated)
By Kd is commonly meant the constant that tells how readily two partners part at equilibrium. Low values mean tighter binding, high ones weaker binding. For orientation: koff means the first-order rate constant of dissociation. The low end stands for a long-lived complex, the high end for a short-lived complex. Broadly, the kon is a measure of how fast the partners come together. Low values mean slower complex formation, high ones faster complex formation. In the assay with KIR3DL1-Fc, B1 had a Kd of 157 nM, a dissociation rate constant (koff) of 0.00691 s⁻¹ and a kon of 44000 M⁻¹ s⁻¹. In the assay with KIR3DS1-Fc, this molecule had a Kd of 25 nM, a koff of 0.0007 s⁻¹ and a kon of 28400 M⁻¹ s⁻¹. In the assay with KIR3DL2-Fc, this molecule showed a Kd of 118 nM, a koff of 0.00508 s⁻¹ and an on-rate (kon) of 43000 M⁻¹ s⁻¹.
